# Data from publication PMC3167627.
# B1: poly-dT60 (ssDNA)
# DNA: TTTTTTTTTTTTTTTTTTTTTTTTTTTTTTTTTTTTTTTTTTTTTTTTTTTTTTTTTTTT
# Molecular target: Mcm2WT-7 (Mcm2-7) (Saccharomyces cerevisiae, UniProt P29469;P24279;P30665;P29496;P53091;P38132 1-868;1-971;1-933;1-775;1-1017;1-845)
# Assay: EMSA
binder,measurement,value
B1,binding result,binds
